Measured values reported in PMC11975207, “One‐Pot Hetero‐Di‐C‐Glycosylation of the Natural Polyphenol Phloretin by a Single C‐Glycosyltransferase With Broad Sugar Substrate Specificity” (Biotechnology and Bioengineering, 2025).

How the values were obtained:
Experiment in all cases: HPLC of UDP release, initial rates, Michaelis-Menten fit
Assay type in all cases: biochemical, Citrus japonica
Settings in all cases: 1.0 mM phloretin as acceptor, pH 8.0, 30 °C, donor 20-800 µM
[1] = substrate: O=c1ccn([C@@H]2O[C@H](COP(=O)(O)OP(=O)(O)O[C@H]3O[C@H](CO)[C@H](O)[C@H](O)[C@H]3O)[C@@H](O)[C@H]2O)c(=O)[nH]1
[2] = substrate: O=c1ccn([C@@H]2O[C@H](COP(=O)(O)OP(=O)(O)O[C@H]3OC[C@@H](O)[C@H](O)[C@H]3O)[C@@H](O)[C@H]2O)c(=O)[nH]1
[3] = substrate: O=c1ccn([C@@H]2O[C@H](CO[P@@](=O)(O)O[P@@](=O)(O)O[C@H]3O[C@H](CO)[C@@H](O)[C@H](O)[C@H]3O)[C@@H](O)[C@H]2O)c(=O)[nH]1

B1: FcCGT (Citrus japonica) (protein)
chain: MSDSGGFDSHPHVALIPSAGMGHLTPFLRLAASLVQHHCRVTLITTYPTVSLAETQHVSHFLSAYPQVTEKRFHLLPFDPNSANATDPFFLRWEAIRRSAHLLAPLLSPPLSALITDVTLISAVLPVTINLHLPNYVLFTASARMFSLTASFPAIVASKSTSSGSVEFDDDFIEIPGLPPIPLSSVPPAVMDSKSLFATSFLENGNSFVKSNGVLINSFDALEADTLVALNGRRVVAGLPPVYAVGPLLPCEFEKRDDPSTSLILKWLDDQPEGSVVYVSFGSRLALSMEQTKELGNGLLSSGCRFLWVVKGKTVDKEDEESLKNVLGHELMEKIKDQGLVVKNWVDQDKVLSHRAVGGFVSHGGWNSLVEAARHGVPVLVWPQFGDQKINAEAVESAGLGMWVRSWGWGTELRAKGDEIGLKIKDLMANDFLREQAKRIEEEARKAIGVGGSSERTFKELIDKWKCNNNTH
notes: recombinant purified; polypeptide Mr 53600; construct details in supplement and Li et al. 2023
B1 was tested, and the Km [1] was 432 ± 26 µM, the kcat [1] was 0.28 ± 0.01 min–1 and the Km [2] was 122 ± 11 µM. For the same protein, the kcat [2] was 15 ± 0.8 min–1, the Km [3] was 55 ± 2.4 µM and the kcat [3] was 139 ± 2.5 min–1.
